Results reported in patent publication US20240066137A1, “NOVEL PROTEIN CONJUGATE, AND USE THEREOF FOR PREVENTING OR TREATING NONALCOHOLIC STEATOHEPATITIS, OBESITY AND DIABETES” (ONEGENE BIOTECHNOLOGY INC., priority 2020, published 2024).
Like-named read-outs stand apart in the source and are kept apart here.

Target: FGFR1/KLB (Homo sapiens, UniProt P11362+Q86Z14)
Test: FGFR1/KLB functional assay (PathHunter)
Type: cell-based
Method: The cells were cultured to 70-80% full in a T-75 flask. The medium was removed and washed with 5 mL of the pre-warmed PBS. PBS was removed, and 2 mL of AssayComplete cell detachment reagent was added, and then incubated in an incubator at 37° C. and 5% CO2 for 3 minutes, and the attached cells were detached. It was mixed with 6 mL of AssayComplete cell plating 0 reagent, and the mixture was transferred to a 15 mL tube, centrifuged at 1,000 rpm for 3 minutes, and then again released in 5 mL of cell plating reagent. The number of cells was counted, and the concentration was allowed to be 500,000 cells/mL. It was transferred to a reservoir, and 40 μL per well was dispensed into a white 96-well half-area cell culture plate using a multi-channel pipette (20,000 cells/well). Only 40 μL of cell plating reagent was dispensed into the blank well. The cells were incubated in an incubator at 37° C. and 5% CO2 for 24 hours to allow to be attached.
10 μL of each of rhFGF21 (5×) and test sample (5×) prepared by 4-fold serial dilution was dispensed in duplicate and cultured at room temperature for 4 hours. 10 μL of AssayComplete cell plating 0 reagent was added to the control and blank wells. After the culture was completed, the medium was removed, and 50 μL of AssayComplete cell plating 0 reagent was added. 30 μL of Detection reagent was dispensed and reacted in a state where light was blocked at room temperature for 1 hour, and then the luminescence was measured with a plate reader.
The luminescence of the sample in the plate was measured with a Synergy Neo2 instrument.
The Delta RLU (relative luminescence unit) (ΔRLU) was calculated as follows.
ΔRLU=RLUsample−RLUblank=Signal−background luminescence
In addition, the fold induction relative to the control group was calculated as follows.
The EC50 values were obtained based on fold induction values by each concentration using GraphPad Prism 8, as follows (curve-fitting of the log (agonist) vs. normalized response−variable slope equation).
In order to test the activity levels of the native FGF21 and the FGF21 analogue at the cellular level (in vitro), the FGFR1/KLB functional assay was performed in the same manner as in Test Example 2.

Sequence of FGFR1/KLB (P11362 22-822): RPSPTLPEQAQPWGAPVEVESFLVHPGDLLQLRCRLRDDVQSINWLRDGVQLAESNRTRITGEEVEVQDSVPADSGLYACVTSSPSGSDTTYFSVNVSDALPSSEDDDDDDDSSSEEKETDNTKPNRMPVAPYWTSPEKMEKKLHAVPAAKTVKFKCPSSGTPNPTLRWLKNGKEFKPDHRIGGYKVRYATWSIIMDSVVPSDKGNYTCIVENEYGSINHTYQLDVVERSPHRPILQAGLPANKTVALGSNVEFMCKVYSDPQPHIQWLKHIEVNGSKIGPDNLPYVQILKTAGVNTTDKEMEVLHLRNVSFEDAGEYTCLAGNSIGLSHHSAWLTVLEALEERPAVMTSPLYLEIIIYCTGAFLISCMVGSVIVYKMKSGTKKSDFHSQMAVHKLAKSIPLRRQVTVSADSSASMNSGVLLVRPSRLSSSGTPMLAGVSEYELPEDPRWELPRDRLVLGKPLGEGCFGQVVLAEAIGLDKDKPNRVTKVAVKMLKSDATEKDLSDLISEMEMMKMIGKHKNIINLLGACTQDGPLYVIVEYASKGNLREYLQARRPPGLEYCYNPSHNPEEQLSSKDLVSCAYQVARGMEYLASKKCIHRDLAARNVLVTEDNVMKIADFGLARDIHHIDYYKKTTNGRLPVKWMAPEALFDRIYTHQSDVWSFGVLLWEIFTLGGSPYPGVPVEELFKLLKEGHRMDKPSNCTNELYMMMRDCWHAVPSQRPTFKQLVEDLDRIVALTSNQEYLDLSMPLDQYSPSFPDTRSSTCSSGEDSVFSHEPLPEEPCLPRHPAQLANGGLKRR
Sequence of FGFR1/KLB (Q86Z14 whole entry): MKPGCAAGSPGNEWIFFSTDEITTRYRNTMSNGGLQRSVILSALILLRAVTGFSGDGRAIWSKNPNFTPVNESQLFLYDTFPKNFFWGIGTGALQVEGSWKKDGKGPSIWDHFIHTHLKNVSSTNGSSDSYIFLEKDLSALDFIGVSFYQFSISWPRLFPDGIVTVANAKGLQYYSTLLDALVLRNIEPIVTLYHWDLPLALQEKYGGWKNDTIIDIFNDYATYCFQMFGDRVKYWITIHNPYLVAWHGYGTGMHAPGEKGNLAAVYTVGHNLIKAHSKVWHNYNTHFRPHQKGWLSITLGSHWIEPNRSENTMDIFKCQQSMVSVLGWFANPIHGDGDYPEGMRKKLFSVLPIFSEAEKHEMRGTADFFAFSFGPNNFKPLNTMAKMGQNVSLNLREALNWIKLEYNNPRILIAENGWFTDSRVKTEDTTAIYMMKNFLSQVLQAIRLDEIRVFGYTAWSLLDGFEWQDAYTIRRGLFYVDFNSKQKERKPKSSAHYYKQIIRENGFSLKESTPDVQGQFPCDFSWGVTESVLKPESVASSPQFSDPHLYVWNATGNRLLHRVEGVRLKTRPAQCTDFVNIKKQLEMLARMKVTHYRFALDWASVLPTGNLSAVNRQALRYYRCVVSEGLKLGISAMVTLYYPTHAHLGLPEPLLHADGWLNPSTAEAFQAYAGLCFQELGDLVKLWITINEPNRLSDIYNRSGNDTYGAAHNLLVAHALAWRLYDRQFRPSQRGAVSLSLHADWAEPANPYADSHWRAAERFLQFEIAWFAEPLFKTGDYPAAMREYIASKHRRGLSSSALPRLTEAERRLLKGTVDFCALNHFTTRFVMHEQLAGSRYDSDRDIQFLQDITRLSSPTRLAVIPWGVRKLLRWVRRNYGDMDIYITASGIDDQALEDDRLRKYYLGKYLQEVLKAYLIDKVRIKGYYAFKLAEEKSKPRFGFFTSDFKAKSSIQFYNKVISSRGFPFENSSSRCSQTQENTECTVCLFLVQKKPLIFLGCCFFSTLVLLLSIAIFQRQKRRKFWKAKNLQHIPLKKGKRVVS

B1: rhFGF21: native FGF21, SEQ ID NO: 17 (protein)
chain: HPIPDSSPLLQFGGQVRQRYLYTDDAQQTEAHLEIREDGTVGGAADQSPESLLQLKALKPGVIQILGVKTSRFLCQRPDGALYGSLHFDPEACSFRELLLEDGYNVYQSEAHGLPLHLPGNKSPHRDPAPRGPARFLPLPGLPPALPEPPGILAPQPPDVGSSDPLSMVGPSQGRSPSYAS
modifications: FGF21 native
- EC50 (Test Example 2, mean of 2 runs, read-out: EC50, Mean): 0.82 nM
- EC50 (Test Example 2, run 1, read-out: EC50, 1): 0.75 nM
- EC50 (Test Example 2, run 2, read-out: EC50, 2): 0.88 nM
- EC50 (Test Example 9 screening, read-out: EC50): 1.17 ± 0.56 nM
